Assay results from CN115368448A (HEFEI TIANGANG IMMUNOLOGY PHARMACEUTICAL CO LTD, dated 2022).

Columns and labels:
[1] = target: T1, CD33 on human acute myeloid leukaemia HL-60 tumour cells (human, UniProt P20138 18-364); test: flow cytometry on HL-60 cells, Alexa-647 anti-human Fc secondary
T1 construct: whole, on cells; also called 人急性髓系细胞白血病HL-60肿瘤细胞; HL-60细胞

[2] = target: T2, CD33蛋白 (SEQ ID NO:29), expressed on transduced cells (Homo sapiens (Human), UniProt P20138 18-364); test: flow cytometry on CHO-K1-CD33 cells, Alexa-647 anti-human Fc secondary
T2 construct: The entry includes the signal peptide; also called CHO-K1-CD33细胞; A375-CD33细胞
T2 sequence (P20138 18-364 limits assumed): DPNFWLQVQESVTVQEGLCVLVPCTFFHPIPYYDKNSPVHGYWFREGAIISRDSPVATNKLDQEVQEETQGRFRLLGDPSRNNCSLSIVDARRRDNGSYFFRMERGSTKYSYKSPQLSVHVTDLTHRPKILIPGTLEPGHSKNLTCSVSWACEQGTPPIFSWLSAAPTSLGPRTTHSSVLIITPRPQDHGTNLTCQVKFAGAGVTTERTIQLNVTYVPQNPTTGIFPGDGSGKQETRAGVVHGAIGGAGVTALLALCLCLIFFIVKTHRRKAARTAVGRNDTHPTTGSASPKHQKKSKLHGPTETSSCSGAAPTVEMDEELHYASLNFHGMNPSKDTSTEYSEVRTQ

[3] = target: T3, CD27 on human peripheral blood CD8+ T cells (human, UniProt P26842 20-260); test: flow cytometry on human PBMC gated on CD8+ T cells, Alexa-647 anti-human Fc secondary
T3 construct: whole, on cells; also called 人外周血T细胞; 人外周血CD8+ T细胞
T3 sequence (looked up): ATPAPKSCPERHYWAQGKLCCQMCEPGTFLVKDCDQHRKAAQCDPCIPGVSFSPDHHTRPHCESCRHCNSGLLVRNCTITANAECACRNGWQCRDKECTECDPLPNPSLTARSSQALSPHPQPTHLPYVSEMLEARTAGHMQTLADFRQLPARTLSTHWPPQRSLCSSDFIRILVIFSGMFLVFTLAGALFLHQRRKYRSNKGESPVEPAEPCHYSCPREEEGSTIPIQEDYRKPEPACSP

[4] = target: T4, CD27蛋白 (SEQ ID NO:27), expressed on transduced cells (Homo sapiens (Human), UniProt P26842 20-260); test: flow cytometry on CHO-K1-CD27 cells, Alexa-647 anti-human Fc secondary
T4 construct: The entry includes the signal peptide; also called CHO-K1-CD27细胞; Jurkat-NFAT-lucia-CD27细胞
T4 sequence: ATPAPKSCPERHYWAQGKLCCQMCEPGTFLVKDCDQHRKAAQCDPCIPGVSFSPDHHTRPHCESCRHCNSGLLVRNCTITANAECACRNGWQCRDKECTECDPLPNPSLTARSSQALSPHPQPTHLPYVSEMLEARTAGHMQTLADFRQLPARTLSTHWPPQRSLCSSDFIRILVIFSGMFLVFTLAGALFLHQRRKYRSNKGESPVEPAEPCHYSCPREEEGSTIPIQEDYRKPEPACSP

Measured: binding result

T1 sequence (P20138 18-364): as the sequence (P20138 18-364 limits assumed) above

B1: CD27×CD33双特异抗体 (bispecific antibody, human IgG1, kappa, L234A L235A)
chain: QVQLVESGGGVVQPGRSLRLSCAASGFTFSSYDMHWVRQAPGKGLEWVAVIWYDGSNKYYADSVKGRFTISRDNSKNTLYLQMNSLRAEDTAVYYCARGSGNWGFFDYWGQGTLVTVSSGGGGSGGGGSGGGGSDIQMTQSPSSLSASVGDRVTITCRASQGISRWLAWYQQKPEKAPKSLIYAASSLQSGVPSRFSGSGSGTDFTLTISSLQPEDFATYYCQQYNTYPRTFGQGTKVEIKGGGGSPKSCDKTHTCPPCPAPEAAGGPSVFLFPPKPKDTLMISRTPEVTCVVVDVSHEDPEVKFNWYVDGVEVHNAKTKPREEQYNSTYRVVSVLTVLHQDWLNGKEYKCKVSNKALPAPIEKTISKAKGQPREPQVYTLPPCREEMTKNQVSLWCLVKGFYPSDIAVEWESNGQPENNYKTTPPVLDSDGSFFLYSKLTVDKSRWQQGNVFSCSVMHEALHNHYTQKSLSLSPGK
heavy: EVQLVQSGAEVKKPGSSVKVSCKASGYTITDSNIHWVRQAPGQSLEWIGYIYPYNGGTDYNQKFKNRATLTVDNPTNTAYMELSSLRSEDTAFYYCVNGNPWLAYWGQGTLVTVSSASTKGPSVFPLAPSSKSTSGGTAALGCLVKDYFPEPVTVSWNSGALTSGVHTFPAVLQSSGLYSLSSVVTVPSSSLGTQTYICNVNHKPSNTKVDKKVEPKSCDKTHTCPPCPAPEAAGGPSVFLFPPKPKDTLMISRTPEVTCVVVDVSHEDPEVKFNWYVDGVEVHNAKTKPREEQYNSTYRVVSVLTVLHQDWLNGKEYKCKVSNKALPAPIEKTISKAKGQPREPQVCTLPPSREEMTKNQVSLSCAVKGFYPSDIAVEWESNGQPENNYKTTPPVLDSDGSFFLVSKLTVDKSRWQQGNVFSCSVMHEALHNHYTQKSLSLSPGK
light: DIQLTQSPSTLSASVGDRVTITCRASESLDNYGIRFLTWFQQKPGKAPKLLMYAASNQGSGVPSRFSGSGSGTEFTLTISSLQPDDFATYYCQQTKEVPWSFGQGTKVEVKRTVAAPSVFIFPPSDEQLKSGTASVVCLLNNFYPREAKVQWKVDNALQSGNSQESVTEQDSKDSTYSLSSTLTLSKADYEKHKVYACEVTHQGLSSPVTKSFNRGEC
notes: Three-chain knob-into-hole heterodimer (scFv-Fc knob arm against CD27, Fab-Fc hole arm against CD33), human IgG1 L234A/L235A constant regions; made in ExpiCHO cells, purified on Protein A; also called 抗体CD27×CD33; 双特异抗体CD27×CD33
binds: all assays above
